Target: ENPP1-Fc fusion protein (not stated | not stated (human or mouse cDNA cloned)) (UniProt P22413)
Test: SEC-MALS; SEC-MALLS/UV/RI, Superose 6 10/30 HR column, PBSplus buffer, 0.3 ml/min; ENPP1-Fc at 100 nM to 1 uM measured at the apex of the eluting peak; three detector approach

Substance: ENPP1-Fc fusion protein (from UniProt P22413 98-925)
- stoichiometry N: 2

Source: paper PMC4686714
